Results published in paper PMC2288870.

How the values were obtained:
[1] = target: 50-kD chymotryptic fragment of thrombospondin (human); test: non-reducing SDS-PAGE
[2] = target: 70-kD chymotryptic fragment of thrombospondin (human); test: non-reducing SDS-PAGE

Row | Substance | stoichiometry N [1] | stoichiometry N [2]
1 | 50-kD chymotryptic fragment of thrombospondin (domain or fragment) | 3 | 
2 | 70-kD chymotryptic fragment of thrombospondin (domain or fragment) |  | 3
